Our source for the fold binding vs empty vector cells, fold binding and concentration values is patent US20200385445A1.

Test [1] has as its target mouse PVRIG over-expressed on HEK293 cells (RC-287; PVRIG-FLAG RC-286) (mouse). Nature of the test: FACS on HEK293 OX mouse PVRIG, 60 ug/ml, other of two sources.
The target is the same in test [2]. Nature of the test: FACS on cells OX mouse PVRIG.
For test [3] the target is unchanged. Nature of the test: FACS on HEK293 OX mouse PVRIG, 60 ug/ml, one of two sources.
Test [4] has the same target. As to the kind of experiment: FACS on cells OX mouse PVRIG, preliminary data.
The target of test [5] is mouse PVRL2 splice variant 1 (sv1) over-expressed on HEK293 cells (RC-334) (mouse) (UniProt P32507). Nature of the test: FACS on HEK293 OX mouse PVRL2 sv1.
The target of test [6] is mouse PVRL2 splice variant 2 (sv2) over-expressed on HEK293 cells (RC-335) (mouse) (UniProt P32507). As to the kind of experiment: FACS dose response on HEK293 OX mouse PVRL2.
Test [7] deals with mouse PVRL2 endogenously expressed on B16-F10 cells (mouse) (UniProt P32507). As to the kind of experiment: FACS dose response on B16-F10 cells.
Sequence of mouse PVRL2 endogenously expressed on B16-F10 cells (mouse) (P32507 32-530): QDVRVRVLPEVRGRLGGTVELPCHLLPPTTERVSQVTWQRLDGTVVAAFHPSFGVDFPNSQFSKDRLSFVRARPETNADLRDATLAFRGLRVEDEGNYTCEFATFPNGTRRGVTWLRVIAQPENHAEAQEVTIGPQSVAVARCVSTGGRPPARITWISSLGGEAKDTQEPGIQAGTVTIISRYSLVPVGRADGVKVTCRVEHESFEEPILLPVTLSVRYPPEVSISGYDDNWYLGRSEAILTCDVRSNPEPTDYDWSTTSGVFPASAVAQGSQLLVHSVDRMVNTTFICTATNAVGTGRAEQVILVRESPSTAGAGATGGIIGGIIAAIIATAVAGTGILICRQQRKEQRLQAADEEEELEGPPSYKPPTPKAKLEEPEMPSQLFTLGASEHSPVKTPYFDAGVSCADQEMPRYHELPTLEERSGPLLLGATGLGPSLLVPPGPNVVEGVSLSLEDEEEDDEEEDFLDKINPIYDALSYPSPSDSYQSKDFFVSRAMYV

Sequence of mouse PVRL2-his (R&D, 3869-N2; Sino Biological, 50318-M08H) (P32507 32-351 limits assumed, stated change not applied): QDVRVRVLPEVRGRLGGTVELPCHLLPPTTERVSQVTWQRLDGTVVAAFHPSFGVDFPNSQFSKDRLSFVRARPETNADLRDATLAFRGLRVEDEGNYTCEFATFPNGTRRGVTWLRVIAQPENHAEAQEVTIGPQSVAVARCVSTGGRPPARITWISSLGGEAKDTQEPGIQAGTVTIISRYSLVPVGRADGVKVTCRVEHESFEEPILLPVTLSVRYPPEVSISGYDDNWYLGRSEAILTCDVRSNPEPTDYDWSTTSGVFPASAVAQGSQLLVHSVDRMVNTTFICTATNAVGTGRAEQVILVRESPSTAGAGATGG
Sequence of mouse PVRL2 splice variant 1 (sv1) over-expressed on HEK293 cells (RC-334) (mouse) (P32507 32-530, change not shown): as the sequence (P32507 32-530) above
Sequence of custom Fc-fused mouse PVRL2 (GenScript) (P32507 32-351 limits assumed): as the sequence (P32507 32-351 limits assumed, stated change not applied) above
Sequence of mouse PVRL2 splice variant 2 (sv2) over-expressed on HEK293 cells (RC-335) (mouse) (P32507 32-530, change not shown): as the sequence (P32507 32-530) above

With “mouse PVRL2-his (R&D, 3869-N2; Sino Biological, 50318-M08H) (from UniProt P32507 32-351) (ligand)”, the fold binding vs empty vector cells in test [1] is 3 to 4 fold; in test [3] it was 2 fold. Moreover, in test [2], the fold binding fell in the range of 2 to 3 fold.

The substance “custom Fc-fused mouse PVRL2 (GenScript) (from UniProt P32507 32-351) (Fc fusion)” registered a fold binding in test [4] of 5 fold.

In test [5], “PVRIG mECD-mIg fusion protein (ECD of mouse PVRIG fused to the Fc of mouse IgG2a) (Fc fusion)” showed a fold binding vs empty vector cells of 6 to 11 fold. The concentration at saturation of binding in test [6] and in test [7] was 12.5 µg/mL each time.
